± gives the uncertainty stated by the source.
Experiment: self-splicing fitness, log relative to wild type (ln ratio); higher = more splicing; Tetrahymena group I intron in knt gene, E. coli kanamycin selection, DiMSum; sequences stand for … in CUCUCU…GGAGGGAAAAGUUAUCAGGCAUGCACCUGGUAGCUAGUCUUUAAACCAAUAGAUUGCAUCGGUUUAAAAGGCAAGACCGUCAAAUUGCGGGAAAGGGGUCAACAGCCGUUCAGUACCAAGUCUCAGGGGAAACUUUGAGAUGGCCUUGCAAAGGGUAUGGUAAUAAGCUGACGGACAUGGUCCUAACCACGCAGCCAAGUCCUAAGUCAACAGAUCUUCUGUUGAUAUGGAUGCAGUUCACAGACUAAAUGUCGGUCGGGGAAGAUGUAUUCUUCUCAUAAGAUAUAGUCGGACCUCUCCUUAAUGGGAGCUAGCGGAUGAAGUGAUGCAACACUGGAGCCGCUGGGAACUAAUUUGUAUGCGAAAGUAUAUUGAUUAGUUUUGGAGUACUCGUGGUCG
Summary of the method: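 Six replicate transformations of E. coli BL21(DE3) with a pET-22b(+) library were grown overnight at 37°C or 30°C. The library randomised all eight P1ex-region intron nucleotides, the intron lying in the knt kanamycin-resistance gene, and plates were LB agar with or without 25 μg/mL kanamycin plus 100 μg/mL carbenicillin, 50 μM IPTG and 0.2% rhamnose. Pooled colonies were amplicon-sequenced on an Illumina HiSeq 2500, and fitness is the DiMSum error-weighted combination of wild-type-normalised replicate fold changes, kanamycin versus none.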

| Sequence | self-splicing fitness (ln) (30 °C) | self-splicing fitness (ln) (37 °C) |
| --- | --- | --- |
| UAUCAGCAAUAUUACGUCCA | -0.388 ± 0.12 | -0.0388 ± 0.13 |
| UAUCAGCAAUAUUACGUGGC | -4.28 ± 0.36 | -2.41 ± 0.27 |
| UAUCAGCAAUAUUACGUUGU | -3.84 ± 0.19 | -2.62 ± 0.21 |
| UAUCAGCAAUAUUACGUUUA | -0.174 ± 0.055 | -0.0219 ± 0.069 |
| UAUGAGCAAUAUUACGACGC | – | -1.38 ± 0.32 |
| UAUGAGCAAUAUUACGACGG | -2.02 ± 0.13 | -1.83 ± 0.19 |
| UAUGAGCAAUAUUACGAGCG | -1.32 ± 0.12 | -1.26 ± 0.16 |
| UAUGAGCAAUAUUACGAGGA | – | -1.91 ± 0.27 |
| UAUGAGCAAUAUUACGAGGU | – | -3.62 ± 0.46 |
| UAUGAGCAAUAUUACGAUUC | – | -1.6 ± 0.45 |
| UAUGAGCAAUAUUACGCAAG | -2.66 ± 0.24 | -1.36 ± 0.23 |
| UAUGAGCAAUAUUACGCACC | -1.68 ± 0.49 | -0.807 ± 0.36 |
| UAUGAGCAAUAUUACGCCAU | -2.15 ± 0.2 | -2.59 ± 0.3 |
| UAUGAGCAAUAUUACGGAAG | -3.37 ± 0.37 | -2.14 ± 0.36 |
| UAUGAGCAAUAUUACGGGUA | -1.86 ± 0.14 | -2.05 ± 0.14 |
| UAUGAGCAAUAUUACGGGUC | -3.72 ± 0.23 | -2.91 ± 0.25 |
| UAUGAGCAAUAUUACGGGUG | -2.3 ± 0.15 | -1.06 ± 0.16 |
| UAUGAGCAAUAUUACGGUAU | -4.03 ± 0.42 | -1.06 ± 0.24 |
| UAUGAGCAAUAUUACGUCGU | -3.39 ± 0.3 | -2.93 ± 0.32 |
| UAUGAGCAAUAUUACGUGUA | -2.13 ± 0.16 | -1.32 ± 0.12 |
| UAUGAGCAAUAUUACGUUAA | -4.12 ± 0.31 | -2.59 ± 0.28 |
| UAUGAGCAAUAUUACGUUCU | -3.57 ± 0.29 | -2.67 ± 0.34 |
| UAUUAGCAAUAUUACGAAAC | – | -2.53 ± 0.3 |
| UAUUAGCAAUAUUACGAAGG | -2.18 ± 0.22 | -0.523 ± 0.17 |
| UAUUAGCAAUAUUACGAAUC | -3.46 ± 0.23 | -0.913 ± 0.2 |

| Sequence | self-splicing fitness (ln) (30 °C) | self-splicing fitness (ln) (37 °C) |
| --- | --- | --- |
| UAUUAGCAAUAUUACGAAUU | -2.51 ± 0.2 | -0.596 ± 0.21 |
| UAUUAGCAAUAUUACGACUG | -0.225 ± 0.16 | 0.804 ± 0.21 |
| UAUUAGCAAUAUUACGAUCC | -3.56 ± 0.38 | -1.76 ± 0.25 |
| UAUUAGCAAUAUUACGCAGC | -3.88 ± 0.24 | -2.56 ± 0.31 |
| UAUUAGCAAUAUUACGCAGU | -2.78 ± 0.28 | -2.72 ± 0.26 |
| UAUUAGCAAUAUUACGCCUC | – | -3.1 ± 0.48 |
| UAUUAGCAAUAUUACGCCUU | -0.78 ± 0.27 | -0.885 ± 0.36 |
| UAUUAGCAAUAUUACGCGCC | -1.23 ± 0.4 | – |
| UAUUAGCAAUAUUACGCGUG | -0.538 ± 0.055 | -0.463 ± 0.065 |
| UAUUAGCAAUAUUACGCUCC | -2.75 ± 0.35 | – |
| UAUUAGCAAUAUUACGCUUC | -3.43 ± 0.44 | -2.84 ± 0.38 |
| UAUUAGCAAUAUUACGGAAA | -1.81 ± 0.48 | -1.98 ± 0.46 |
| UAUUAGCAAUAUUACGGCAC | -1.88 ± 0.21 | -0.983 ± 0.35 |
| UAUUAGCAAUAUUACGGGUG | -0.149 ± 0.069 | 0.0549 ± 0.098 |
| UAUUAGCAAUAUUACGGUAG | -2.42 ± 0.21 | -0.417 ± 0.17 |
| UAUUAGCAAUAUUACGUAGC | -2.37 ± 0.22 | -1.31 ± 0.27 |
| UAUUAGCAAUAUUACGUCUC | -2.7 ± 0.35 | -1.5 ± 0.22 |
| UAUUAGCAAUAUUACGUGAA | -2.17 ± 0.13 | -1.87 ± 0.15 |
| UAUUAGCAAUAUUACGUGCA | -0.96 ± 0.16 | -0.986 ± 0.16 |
| UAUUAGCAAUAUUACGUGGU | -2.57 ± 0.15 | -2.69 ± 0.23 |
| UAUUAGCAAUAUUACGUUAA | -1.91 ± 0.36 | -1.53 ± 0.18 |
| UAUUAGCAAUAUUACGUUAU | -2.68 ± 0.19 | -2.2 ± 0.22 |
| UAUUAGCAAUAUUACGUUCG | -1.13 ± 0.16 | -0.121 ± 0.18 |
| UCAAAGCAAUAUUACGAACU | -3.14 ± 0.19 | -1.97 ± 0.23 |
| UCAAAGCAAUAUUACGAAGC | -3.5 ± 0.33 | -1.84 ± 0.38 |

| Sequence | self-splicing fitness (ln) (30 °C) | self-splicing fitness (ln) (37 °C) |
| --- | --- | --- |
| UCAAAGCAAUAUUACGACGG | -0.0455 ± 0.082 | 0.125 ± 0.12 |
| UCAAAGCAAUAUUACGACUA | -1.14 ± 0.098 | -1.03 ± 0.1 |
| UCAAAGCAAUAUUACGAGCA | -1.07 ± 0.15 | -0.556 ± 0.15 |
| UCAAAGCAAUAUUACGAUGC | -2.78 ± 0.15 | -0.924 ± 0.15 |
| UCAAAGCAAUAUUACGAUUA | -1.26 ± 0.11 | -1.16 ± 0.12 |
| UCAAAGCAAUAUUACGAUUC | -3.67 ± 0.27 | -2.63 ± 0.28 |
| UCAAAGCAAUAUUACGCGUG | -1.31 ± 0.057 | -0.871 ± 0.066 |
| UCAAAGCAAUAUUACGGAAU | -3.53 ± 0.17 | -2.94 ± 0.23 |
| UCAAAGCAAUAUUACGGCGG | -0.543 ± 0.063 | -0.0651 ± 0.088 |
| UCAAAGCAAUAUUACGGUCU | -2.68 ± 0.16 | -1.58 ± 0.14 |
| UCAAAGCAAUAUUACGUAGG | -1.07 ± 0.072 | -0.463 ± 0.096 |
| UCAAAGCAAUAUUACGUCUG | -1.05 ± 0.076 | -0.306 ± 0.087 |
| UCAAAGCAAUAUUACGUGUU | -3.06 ± 0.1 | -2.8 ± 0.14 |
| UCAAAGCAAUAUUACGUUAC | – | -2.01 ± 0.12 |
| UCAAAGCAAUAUUACGUUUC | -4.09 ± 0.26 | -3.15 ± 0.2 |
| UCACAGCAAUAUUACGAAGC | -3.07 ± 0.21 | – |
| UCACAGCAAUAUUACGAGCU | -3.32 ± 0.18 | -2.37 ± 0.26 |
| UCACAGCAAUAUUACGAGGC | -2.83 ± 0.14 | -2.62 ± 0.16 |
| UCACAGCAAUAUUACGCCCA | -1.47 ± 0.19 | 0.000225 ± 0.15 |
| UCACAGCAAUAUUACGCCCG | -0.978 ± 0.12 | -0.555 ± 0.14 |
| UCACAGCAAUAUUACGCCGC | -3.57 ± 0.22 | -2.69 ± 0.19 |
| UCACAGCAAUAUUACGCCUC | -2.06 ± 0.35 | – |
| UCACAGCAAUAUUACGCGAA | -1.74 ± 0.086 | -0.538 ± 0.091 |
| UCACAGCAAUAUUACGCGGU | -4.02 ± 0.13 | -2.63 ± 0.13 |
| UCACAGCAAUAUUACGCUGC | -2.78 ± 0.22 | -2.09 ± 0.23 |

| Sequence | self-splicing fitness (ln) (30 °C) | self-splicing fitness (ln) (37 °C) |
| --- | --- | --- |
| UCACAGCAAUAUUACGGAGU | -4.75 ± 0.33 | -3.4 ± 0.23 |
| UCACAGCAAUAUUACGGCAU | -4.11 ± 0.22 | -2.26 ± 0.14 |
| UCACAGCAAUAUUACGGGCG | -0.948 ± 0.094 | -1.07 ± 0.093 |
| UCACAGCAAUAUUACGGUAC | -3.57 ± 0.24 | -2.6 ± 0.22 |
| UCACAGCAAUAUUACGGUCC | -2.85 ± 0.21 | -2.2 ± 0.2 |
| UCACAGCAAUAUUACGUCAC | -3.17 ± 0.18 | -1.64 ± 0.13 |
| UCACAGCAAUAUUACGUGCA | -0.403 ± 0.067 | 0.0083 ± 0.085 |
| UCACAGCAAUAUUACGUUCG | -1.07 ± 0.061 | -0.209 ± 0.09 |
| UCAGAGCAAUAUUACGAAGC | -2.55 ± 0.44 | – |
| UCAGAGCAAUAUUACGACAG | -2.53 ± 0.19 | -2.92 ± 0.36 |
| UCAGAGCAAUAUUACGAGGA | -2.47 ± 0.15 | -1.83 ± 0.16 |
| UCAGAGCAAUAUUACGAUCU | -3.62 ± 0.21 | -2.88 ± 0.28 |
| UCAGAGCAAUAUUACGCAAG | -1.74 ± 0.42 | -1.48 ± 0.29 |
| UCAGAGCAAUAUUACGCCCG | -2 ± 0.47 | – |
| UCAGAGCAAUAUUACGCGCC | -2.37 ± 0.46 | – |
| UCAGAGCAAUAUUACGCGCU | – | -1.62 ± 0.29 |
| UCAGAGCAAUAUUACGCUGU | -2.98 ± 0.26 | – |
| UCAGAGCAAUAUUACGGAAG | -3.05 ± 0.26 | -3.41 ± 0.37 |
| UCAGAGCAAUAUUACGGAUG | -3.87 ± 0.38 | -2.06 ± 0.35 |
| UCAGAGCAAUAUUACGGCGA | -0.324 ± 0.072 | -0.417 ± 0.076 |
| UCAGAGCAAUAUUACGGGCA | -3.11 ± 0.29 | -1.77 ± 0.17 |
| UCAGAGCAAUAUUACGGUGU | -4.01 ± 0.3 | -2.25 ± 0.18 |
| UCAGAGCAAUAUUACGUAUA | -3.46 ± 0.27 | -2.44 ± 0.23 |
| UCAGAGCAAUAUUACGUCUA | -3.04 ± 0.29 | -2.35 ± 0.3 |
| UCAGAGCAAUAUUACGUGUA | -2.57 ± 0.23 | -2.18 ± 0.19 |
